From PMC8455438 (Molecular cell, 2021)
Positions count from the first letter of the chain named. Numbers in names are those of the source. Where two headings read alike, the source gives them in different places. Blank lines part the entries; values can stand above or below the binder they belong to.

Tests used:
[1] = target: T1, Recombinant IDH2 (R140Q) protein (ACTIVE MOTIF) (human, UniProt P48735 40-452, R140Q); assay: co-IP
T1 sequence (looked up): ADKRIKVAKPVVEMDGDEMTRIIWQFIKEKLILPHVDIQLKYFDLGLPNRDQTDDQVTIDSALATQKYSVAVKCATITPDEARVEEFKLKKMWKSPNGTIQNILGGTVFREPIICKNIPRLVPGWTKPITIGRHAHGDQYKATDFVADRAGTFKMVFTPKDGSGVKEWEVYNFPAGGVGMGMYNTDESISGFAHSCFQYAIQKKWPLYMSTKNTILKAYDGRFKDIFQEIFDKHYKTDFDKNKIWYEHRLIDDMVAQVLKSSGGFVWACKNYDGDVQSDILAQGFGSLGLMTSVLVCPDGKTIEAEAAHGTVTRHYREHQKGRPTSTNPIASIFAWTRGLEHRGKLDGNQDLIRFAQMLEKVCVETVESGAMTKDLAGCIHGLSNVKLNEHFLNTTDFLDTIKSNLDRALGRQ

native gel or EMSA [2] = target: the molecule itself; assay: native gel or EMSA
native gel or EMSA [3] = target: the molecule itself; assay: native gel or EMSA; remark: listed apart in the source

binding result [1]: binds
B1: recombinant ACAT1 (mitochondrial acetyl-coA acetyltransferase), wild type (enzyme, UniProt P24752 34-427, looked up)
chain: VSKPTLKEVVIVSATRTPIGSFLGSLSLLPATKLGSIAIQGAIEKAGIPKEEVKEAYMGNVLQGGEGQAPTRQAVLGAGLPISTPCTTINKVCASGMKAIMMASQSLMCGHQDVMVAGGMESMSNVPYVMNRGSTPYGGVKLEDLIVKDGLTDVYNKIHMGSCAENTAKKLNIARNEQDAYAINSYTRSKAAWEAGKFGNEVIPVTVTVKGQPDVVVKEDEEYKRVDFSKVPKLKTVFQKENGTVTAANASTLNDGAAALVLMTADAAKRLNVTPLARIVAFADAAVEPIDFPIAPVYAASMVLKDVGLKKEDIAMWEVNEAFSLVVLANIKMLEIDPQKVNINGGAVSLGHPIGMSGARIVGHLTHALKQGEYGLASICNGGGGASAMLIQKL

binding result [1]: binds
B2: recombinant ACAT1 treated with rFLT3 (Y407-phosphorylated) (enzyme, UniProt P24752 34-427, looked up)
chain: B1 chain
modifications: phosphotyrosine at Y407 (by rFLT3)

binding result [1]: binds
B3: recombinant ACAT1 Y407F (phosphor-deficient mutant) (enzyme, UniProt P24752 34-427, looked up)
chain: B1 chain with Y374F

B4: 6xHis-IDH2 R140Q-FLAG, K413 not acetylated (pre-treated with cobB protein deacetylase, or deacetylated by rSIRT3) (enzyme, human, UniProt P48735 40-452, looked up)
chain: T1 sequence (looked up)
stoichiometry N (native gel or EMSA [2]): 2

B5: 6xHis-IDH2 R140Q/K413R-FLAG (acetyl-deficient) (enzyme, human, UniProt P48735 40-452, looked up)
chain: T1 sequence (looked up) with K374R
stoichiometry N (native gel or EMSA [2]): 2

B6: 6xHis-IDH2 R140Q/K413Q-FLAG (acetyl-mimetic) (enzyme, human, UniProt P48735 40-452, looked up)
chain: T1 sequence (looked up) with K374Q
stoichiometry N (native gel or EMSA [2]): 2

B7: 6xHis-IDH2 R140Q-FLAG, K413-acetylated (by rACAT1 after cobB pre-treatment, or with intrinsic lysine acetylation obtained in bacteria) (enzyme, human, UniProt P48735 40-452, looked up)
chain: T1 sequence (looked up)
modifications: acetyl-lysine at K413 (rACAT1 acetylates mutant IDH2 at multiple lysine sites; intrinsic lysine acetylation obtained in bacteria)
stoichiometry N (native gel or EMSA [3]): 2
